B1: Pistol ribozyme (parent)
chain: GGGUCGUUGUUCCAUAAUCGCGUGGAUAUGGCACGCAAGUUUCUACCGGGCACCGUAAAUGUCCGACUGGAGCCGUUCGGGCGGCUAUAAACAGACCUCAGGCCCGAAGCGUGGCGGCACCUGCCGCCGGUGGUAAAAAAGAUCGGAAGAGCACACGUCU

The variants in the data set derive from B1. Kind of data set: aptazyme ON/OFF ratio, guanine; higher = stronger switching; co-transcriptional cleavage with and without guanine.
Consider GGGUCGUCACUCUAUAAUCGCGUGGAUAUGGCACGCAAGUUUCUACCGGGCACCGUAAAUGUCCGACUGGAGCCGUUCGGGCGGCUAUAAACAGACCUCAGGCCCGAAGCGUGGCGGCACCUGCCGCCGGUGGUAAAAAAGAUCGGAAGAGCACACGUCU [U8C G9A U10C C13U], for which the “aptazyme ON/OFF ratio” value turned out to be 1.66.

With GGGUCGUCACAGGAUAAUCGCGUGGAUAUGGCACGCAAGUUUCUACCGGGCACCGUAAAUGUCCGACUGGAGCCGUUCGGGCGGCUAUAAACAGACCUCAGGCCCGAAGCGUGGCGGCACCUGCCGCCGGUGGUAAAAAAGAUCGGAAGAGCACACGUCU [U8C G9A U10C U11A C12G C13G], the “aptazyme ON/OFF ratio” value was determined as 1.5.

Turning to GGGUCGUCACAGAAUAAUCGCGUGGAUAUGGCACGCAAGUUUCUACCGGGCACCGUAAAUGUCCGACUGGAGCCGUUCGGGCGGCUAUAAACAGACCUCAGGCCCGAAGCGUGGCGGCACCUGCCGCCGGUGGUAAAAAAGAUCGGAAGAGCACACGUCU [U8C G9A U10C U11A C12G C13A], the “aptazyme ON/OFF ratio” value stood at 1.23.

Regarding GGGUCGUCACAGUAUAAUCGCGUGGAUAUGGCACGCAAGUUUCUACCGGGCACCGUAAAUGUCCGACUGGAGCCGUUCGGGCGGCUAUAAACAGACCUCAGGCCCGAAGCGUGGCGGCACCUGCCGCCGGUGGUAAAAAAGAUCGGAAGAGCACACGUCU [U8C G9A U10C U11A C12G C13U], the “aptazyme ON/OFF ratio” value stood at 1.19.

GGGUCGUCACAAGAUAAUCGCGUGGAUAUGGCACGCAAGUUUCUACCGGGCACCGUAAAUGUCCGACUGGAGCCGUUCGGGCGGCUAUAAACAGACCUCAGGCCCGAAGCGUGGCGGCACCUGCCGCCGGUGGUAAAAAAGAUCGGAAGAGCACACGUCU [U8C G9A U10C U11A C12A C13G]: the “aptazyme ON/OFF ratio” value is 1.27.

Regarding GGGUCGUCACAAUAUAAUCGCGUGGAUAUGGCACGCAAGUUUCUACCGGGCACCGUAAAUGUCCGACUGGAGCCGUUCGGGCGGCUAUAAACAGACCUCAGGCCCGAAGCGUGGCGGCACCUGCCGCCGGUGGUAAAAAAGAUCGGAAGAGCACACGUCU [U8C G9A U10C U11A C12A C13U], the “aptazyme ON/OFF ratio” value was found to be 1.19.

For GGGUCGUCACAAAAUAAUCGCGUGGAUAUGGCACGCAAGUUUCUACCGGGCACCGUAAAUGUCCGACUGGAGCCGUUCGGGCGGCUAUAAACAGACCUCAGGCCCGAAGCGUGGCGGCACCUGCCGCCGGUGGUAAAAAAGAUCGGAAGAGCACACGUCU [U8C G9A U10C U11A C12A C13A], the “aptazyme ON/OFF ratio” value is 1.23.

Regarding GGGUCGUCACACAAUAAUCGCGUGGAUAUGGCACGCAAGUUUCUACCGGGCACCGUAAAUGUCCGACUGGAGCCGUUCGGGCGGCUAUAAACAGACCUCAGGCCCGAAGCGUGGCGGCACCUGCCGCCGGUGGUAAAAAAGAUCGGAAGAGCACACGUCU [U8C G9A U10C U11A C13A], the “aptazyme ON/OFF ratio” value is 1.2.

With GGGUCGUCACACUAUAAUCGCGUGGAUAUGGCACGCAAGUUUCUACCGGGCACCGUAAAUGUCCGACUGGAGCCGUUCGGGCGGCUAUAAACAGACCUCAGGCCCGAAGCGUGGCGGCACCUGCCGCCGGUGGUAAAAAAGAUCGGAAGAGCACACGUCU [U8C G9A U10C U11A C13U], the “aptazyme ON/OFF ratio” value amounted to 1.3.

As to GGGUCGUCACACGAUAAUCGCGUGGAUAUGGCACGCAAGUUUCUACCGGGCACCGUAAAUGUCCGACUGGAGCCGUUCGGGCGGCUAUAAACAGACCUCAGGCCCGAAGCGUGGCGGCACCUGCCGCCGGUGGUAAAAAAGAUCGGAAGAGCACACGUCU [U8C G9A U10C U11A C13G], the “aptazyme ON/OFF ratio” value worked out at 1.15.

In the case of GGGUCGUCACGACAUAAUCGCGUGGAUAUGGCACGCAAGUUUCUACCGGGCACCGUAAAUGUCCGACUGGAGCCGUUCGGGCGGCUAUAAACAGACCUCAGGCCCGAAGCGUGGCGGCACCUGCCGCCGGUGGUAAAAAAGAUCGGAAGAGCACACGUCU [U8C G9A U10C U11G C12A], the “aptazyme ON/OFF ratio” value was found to be 1.25.

Regarding GGGUCGUCACCCGAUAAUCGCGUGGAUAUGGCACGCAAGUUUCUACCGGGCACCGUAAAUGUCCGACUGGAGCCGUUCGGGCGGCUAUAAACAGACCUCAGGCCCGAAGCGUGGCGGCACCUGCCGCCGGUGGUAAAAAAGAUCGGAAGAGCACACGUCU [U8C G9A U10C U11C C13G], the “aptazyme ON/OFF ratio” value worked out at 1.02.

For the variant GGGUCGUCACCCUAUAAUCGCGUGGAUAUGGCACGCAAGUUUCUACCGGGCACCGUAAAUGUCCGACUGGAGCCGUUCGGGCGGCUAUAAACAGACCUCAGGCCCGAAGCGUGGCGGCACCUGCCGCCGGUGGUAAAAAAGAUCGGAAGAGCACACGUCU [U8C G9A U10C U11C C13U], the “aptazyme ON/OFF ratio” value amounted to 1.01.

For the variant GGGUCGUCACCCAAUAAUCGCGUGGAUAUGGCACGCAAGUUUCUACCGGGCACCGUAAAUGUCCGACUGGAGCCGUUCGGGCGGCUAUAAACAGACCUCAGGCCCGAAGCGUGGCGGCACCUGCCGCCGGUGGUAAAAAAGAUCGGAAGAGCACACGUCU [U8C G9A U10C U11C C13A], the “aptazyme ON/OFF ratio” value stood at 1.01.

For GGGUCGUCACGCCAUAAUCGCGUGGAUAUGGCACGCAAGUUUCUACCGGGCACCGUAAAUGUCCGACUGGAGCCGUUCGGGCGGCUAUAAACAGACCUCAGGCCCGAAGCGUGGCGGCACCUGCCGCCGGUGGUAAAAAAGAUCGGAAGAGCACACGUCU [U8C G9A U10C U11G], the “aptazyme ON/OFF ratio” value was 1.19.

With GGGUCGUCACCCCAUAAUCGCGUGGAUAUGGCACGCAAGUUUCUACCGGGCACCGUAAAUGUCCGACUGGAGCCGUUCGGGCGGCUAUAAACAGACCUCAGGCCCGAAGCGUGGCGGCACCUGCCGCCGGUGGUAAAAAAGAUCGGAAGAGCACACGUCU [U8C G9A U10C U11C], the “aptazyme ON/OFF ratio” value was 1.25.

Consider GGGUCGUCACACCAUAAUCGCGUGGAUAUGGCACGCAAGUUUCUACCGGGCACCGUAAAUGUCCGACUGGAGCCGUUCGGGCGGCUAUAAACAGACCUCAGGCCCGAAGCGUGGCGGCACCUGCCGCCGGUGGUAAAAAAGAUCGGAAGAGCACACGUCU [U8C G9A U10C U11A], for which the “aptazyme ON/OFF ratio” value is 3.76.

For GGGUCGUCACAACAUAAUCGCGUGGAUAUGGCACGCAAGUUUCUACCGGGCACCGUAAAUGUCCGACUGGAGCCGUUCGGGCGGCUAUAAACAGACCUCAGGCCCGAAGCGUGGCGGCACCUGCCGCCGGUGGUAAAAAAGAUCGGAAGAGCACACGUCU [U8C G9A U10C U11A C12A], the “aptazyme ON/OFF ratio” value amounted to 1.44.

Source of the values: the RNAGym collection of RNA variant scans (doi:10.1021/acssynbio.7b00057).
